Source: patent publication US20040120943

Biological target: rabbit thrombomodulin (UniProt Q8HZ48)

Substance: variant thrombin W215A/E217A (WE)
- activity toward protein C on addition of thrombomodulin: the WE variant thrombin recovers almost its full activity toward protein C upon binding to thrombomodulin
